Experimental findings from patent US20230212222A1 (ANYGEN CO., LTD., priority 2020, published 2023) are described below.

The labels stand for the following.
T1: GPR39 (G protein-coupled receptor 39) (Homo sapiens (Human), UniProt O43194 1-453)
T1 sequence: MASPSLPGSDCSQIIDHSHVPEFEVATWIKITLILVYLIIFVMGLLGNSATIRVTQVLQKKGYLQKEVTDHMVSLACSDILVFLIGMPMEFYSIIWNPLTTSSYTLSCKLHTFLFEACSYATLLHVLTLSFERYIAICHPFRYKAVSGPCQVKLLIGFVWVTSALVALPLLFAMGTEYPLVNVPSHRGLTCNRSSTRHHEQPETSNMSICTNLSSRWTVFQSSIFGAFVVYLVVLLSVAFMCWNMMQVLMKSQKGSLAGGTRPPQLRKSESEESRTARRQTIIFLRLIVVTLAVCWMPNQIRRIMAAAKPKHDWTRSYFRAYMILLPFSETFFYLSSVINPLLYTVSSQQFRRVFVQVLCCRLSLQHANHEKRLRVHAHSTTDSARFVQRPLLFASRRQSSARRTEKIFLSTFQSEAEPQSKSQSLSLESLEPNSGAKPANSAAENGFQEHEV

B1: HKFY-55 (peptide)
peptide: K(Octanoyl)H(Trt)FY
B2: HKFY-68 (peptide)
peptide: H(Benzhydryl)K(Octanoyl)[dPhe(4-Me)][Tyr(3-nitro)]
B3: HKFY-58 (peptide)
peptide: H(1‑phenyl)K(Octanoyl)[dPhe(4-Me)]Y
B4: HKFY-9 (peptide)
peptide: HK(Octanoyl)FY
modifications: not fully specified (residue 1)
B5: HKFY-54 (peptide)
peptide: Lys(Octanoyl)-Phe-Tyr
B6: HKFY-51 (peptide)
peptide: H(Trt)K(Octanoyl)LY
B7: HKFY-11 (peptide)
peptide: H(2‑cyclohexylethyl)K(Octanoyl)FY
B8: HKFY-72 (peptide)
peptide: Biotin-H(Benzhydryl)K(Octanoyl)[dPhe(4-Me)]Y
B9: HKFY-10 (peptide)
peptide: H(CH2(1-naphthyl))K(Octanoyl)FY
B10: HKFY-67 (peptide)
peptide: H(Benzhydryl)K(Octanoyl)[dPhe(4-Me)][Tyr(3-chloro)]
B11: HKFY-7 (peptide)
peptide: H(DAMP‑5)K(Octanoyl)FY
B12: HKFY-79 (peptide)
peptide: His(Benzhydryl)-Lys(Octanoyl)
B13: HKFY-14 (peptide)
peptide: [dH](Trt)K(Octanoyl)[dPhe(4-Cl)][dY]
B14: HKFY-15 (peptide)
peptide: H(Trt)K(Octanoyl)[dPhe(4-Cl)][dY]
B15: HKFY-57 (peptide)
peptide: H(2‑phenyl)K(Octanoyl)[dPhe(4-Me)]Y
B16: HKFY-5 (peptide)
peptide: H(4‑methyltrityl)K(Octanoyl)FY
B17: HKFY-13 (peptide)
peptide: H(Trt)K(Octanoyl)[dPhe(4-Cl)]Y
B18: HKFY-66 (peptide)
peptide: H(Benzhydryl)K(Octanoyl)[dPhe(4-Me)]Y-NH2
B19: HKFY-12 (peptide)
peptide: H(Trt)K(Octanoyl)[dF]Y
B20: HKFY-65 (peptide)
peptide: H(4‑hydroxybenzhydryl)K(Octanoyl)[dPhe(4-Me)]Y
B21: HKFY-69 (peptide)
peptide: H(Benzhydryl)K(Octanoyl)[dPhe(4-Me)][Tyr(3,5-nitro)]
B22: HKFY-61 (peptide)
peptide: H(1‑(4-tert-butyl)phenyl)K(Octanoyl)[dPhe(4-Me)]Y
B23: HKFY-63 (peptide)
peptide: H(thiophene)K(Octanoyl)[dPhe(4-Me)]Y
B24: HKFY-8 (peptide)
peptide: H(DAMP‑2)K(Octanoyl)FY
B25: HKFY-75 (peptide)
peptide: H(Tos)K(Octanoyl)[dPhe(4-Me)]Y
B26: HKFY-50 (peptide)
peptide: H(Trt)K(Octanoyl)FS
B27: HKFY-70 (peptide)
peptide: H(Benzhydryl)K(Octanoyl)[dPhe(4-Me)][Tyr(3-amino)]
B28: HKFY-59 (peptide)
peptide: H(1,2‑diphenyl)K(Octanoyl)[dPhe(4-Me)]Y
B29: HKFY-62 (peptide)
peptide: [dH](Benzhydryl)K(Octanoyl)[dPhe(4-Me)]Y
B30: HKFY-6 (peptide)
peptide: H(DAMP‑3)K(Octanoyl)FY
B31: HKFY-1 (peptide)
peptide: H(Trt)K(Octanoyl)FY
B32: HKFY-53 (peptide)
peptide: H(Trt)GSK(Octanoyl)FY
B33: HKFY-2 (peptide)
peptide: Biotin-H(Trt)K(Octanoyl)FY
B34: HKFY-64 (peptide)
peptide: H(4‑methoxybenzhydryl)K(Octanoyl)[dPhe(4-Me)]Y
B35: HKFY-76 (peptide)
peptide: H(Trt)K(Octanoyl)[dPhe(4-CF3)]Y
B36: HKFY-52 (peptide)
peptide: H(Trt)FYDQQARF
modifications: not fully specified; printed as His(trt)-Phe-Tyr-Asp-Gln-Gln-Ala-Arg-Phe
B37: HKFY-60 (peptide)
peptide: H(2‑(4-tert-butyl)phenyl)K(Octanoyl)[dPhe(4-Me)]Y
B38: HKFY-77 (peptide)
peptide: H(tbm)K(Octanoyl)FY
modifications: not fully specified (residue 3); printed as His(tbm)-Lys(caprylic)-d-Phe(4-CF3)-Tyr
B39: HKFY-56 (peptide)
peptide: H(Trt)K(caproic)FYDQQARF

Numbered stars: 1 amine (or outer) side, 2 acyl side, 3 side chain; on linkers, the order of the positions; unused ones are H or OH. Square brackets hold non-standard residues; d marks the D form. Ends that are not written are not given here. * marks the point of attachment. DAMP‑2 = His whose imidazole is a 1,3-bis(2-cyclohexylethyl)-2,3-dihydro-1H-imidazol-4-yl group, O=C([C@H](CC1=CN(CCC2CCCCC2)CN1CCC1CCCCC1)N[*:1])[*:2]; DAMP‑3 = His whose imidazole is a 1,3-diphenethyl-2,3-dihydro-1H-imidazol-4-yl group, O=C([C@H](CC1=CN(CCc2ccccc2)CN1CCc1ccccc1)N[*:1])[*:2]; 1,2‑diphenyl = His whose imidazole is a 1,2-diphenyl-1H-imidazol-4-yl group, O=C([C@H](Cc1cn(-c2ccccc2)c(-c2ccccc2)n1)N[*:1])[*:2]; tbm = (2'-(1H-tetrazol-5-yl)-[1,1'-biphenyl]-4-yl)methyl on the histidine imidazole nitrogen, c1ccc(-c2nn[nH]n2)c(-c2ccc(C*)cc2)c1; 2‑(4-tert-butyl)phenyl = His carrying a 2-(4-tert-butylphenyl) group on the imidazole (imidazole C2), CC(C)(C)c1ccc(*)cc1; DAMP‑5 = His whose imidazole is a 3-(2-cyclohexylethyl)-2,3-dihydro-1H-imidazol-4-yl group; thiophene = His carrying a thiophen-2-yl group on the imidazole (imidazole C2), c1csc(*)c1; 1‑phenyl = His whose imidazole is a 1-phenyl-1H-imidazol-4-yl group, c1ccc(*)cc1; 2‑phenyl = His whose imidazole is a 2-phenyl-1H-imidazol-4-yl group; Biotin = O=C1N[C@H]2[C@H](CS[C@H]2CCCCC(=O)*)N1; dPhe(4-CF3) = N[C@H](Cc1ccc(C(F)(F)F)cc1)C(=O)O; 1‑(4-tert-butyl)phenyl = CC(C)(C)c1ccc(*)cc1; dPhe(4-Cl) = N[C@H](Cc1ccc(Cl)cc1)C(=O)O; dPhe(4-Me) = Cc1ccc(C[C@@H](N)C(=O)O)cc1; Trt = c1ccc(C(c2ccccc2)(c2ccccc2)*)cc1; CH2(1-naphthyl) = c1ccc2c(C*)cccc2c1; Benzhydryl = c1ccc(C(c2ccccc2)*)cc1; 2‑cyclohexylethyl = C1CCC(CC*)CC1; Tos = Cc1ccc(S(=O)(=O)*)cc1; Octanoyl = CCCCCCCC(=O)*

The target in this test is T1, GPR39 (G protein-coupled receptor 39). The test is described as follows: cell-based or functional assay.
With B1, the “EC50 (luciferase reporter)” value is 2.49 µM and the “ECmax (-fold induction over basal)” value is 16.8 -fold induction over basal.

As to B2, the “EC50 (luciferase reporter)” value was found to be 0.013 µM and the “ECmax (-fold induction over basal)” value was 10.8 -fold induction over basal.

Consider B3, for which the “EC50 (luciferase reporter)” value is 0.02 µM and the “ECmax (-fold induction over basal)” value is 9.12 -fold induction over basal.

In the case of B4, the “EC50 (luciferase reporter)” value was 42.7 µM and the “ECmax (-fold induction over basal)” value was 21 -fold induction over basal.

Consider B5, for which the “EC50 (luciferase reporter)” value is 25.9 µM and the “ECmax (-fold induction over basal)” value was 7.8 -fold induction over basal.

For B6, the “EC50 (luciferase reporter)” value came out at 0.12 µM and the “ECmax (-fold induction over basal)” value is 14.4 -fold induction over basal.

On to B7, for which the “EC50 (luciferase reporter)” value was found to be 57.8 µM and the “ECmax (-fold induction over basal)” value is 22 -fold induction over basal.

With B8, the “EC50 (luciferase reporter)” value worked out at 0.011 µM and the “ECmax (-fold induction over basal)” value is 10.4 -fold induction over basal.

In the case of B9, the “EC50 (luciferase reporter)” value was 46.5 µM and the “ECmax (-fold induction over basal)” value is 14 -fold induction over basal.

B10: the “EC50 (luciferase reporter)” value was determined as 0.043 µM and the “ECmax (-fold induction over basal)” value was 10.2 -fold induction over basal.

Turning to B11, the “EC50 (luciferase reporter)” value is 1.56 µM and the “ECmax (-fold induction over basal)” value is 16 -fold induction over basal.

Turning to B12, the “EC50 (luciferase reporter)” value stood at 0.97 µM and the “ECmax (-fold induction over basal)” value was 11.2 -fold induction over basal.

With B13, the “EC50 (luciferase reporter)” value is 0.02 µM and the “ECmax (-fold induction over basal)” value was 20.9 -fold induction over basal.

For the molecule B14, the “EC50 (luciferase reporter)” value stood at 0.098 µM and the “ECmax (-fold induction over basal)” value is 24.7 -fold induction over basal.

For the molecule B15, the “EC50 (luciferase reporter)” value was 0.26 µM and the “ECmax (-fold induction over basal)” value was 8.5 -fold induction over basal.

B16: the “EC50 (luciferase reporter)” value stood at 1.84 µM and the “ECmax (-fold induction over basal)” value is 16 -fold induction over basal.

Consider B17, for which the “EC50 (luciferase reporter)” value turned out to be 0.014 µM and the “ECmax (-fold induction over basal)” value was 25.7 -fold induction over basal.

With B18, the “EC50 (luciferase reporter)” value turned out to be 0.011 µM and the “ECmax (-fold induction over basal)” value was 20.2 -fold induction over basal.

With B19, the “EC50 (luciferase reporter)” value is 0.035 µM and the “ECmax (-fold induction over basal)” value is 20.7 -fold induction over basal.

On to B20, for which the “EC50 (luciferase reporter)” value came out at 0.003 µM and the “ECmax (-fold induction over basal)” value was 18.3 -fold induction over basal.

On to B21, for which the “EC50 (luciferase reporter)” value stood at 0.015 µM and the “ECmax (-fold induction over basal)” value is 12.2 -fold induction over basal.

On to B22, for which the “EC50 (luciferase reporter)” value worked out at 0.02 µM and the “ECmax (-fold induction over basal)” value was 9.88 -fold induction over basal.

Consider B23, for which the “EC50 (luciferase reporter)” value amounted to 0.006 µM and the “ECmax (-fold induction over basal)” value is 13.5 -fold induction over basal.

For the molecule B24, the “EC50 (luciferase reporter)” value came to 33.6 µM and the “ECmax (-fold induction over basal)” value is 17.3 -fold induction over basal.

Turning to B25, the “EC50 (luciferase reporter)” value turned out to be 0.001 µM and the “ECmax (-fold induction over basal)” value is 15.9 -fold induction over basal.

B26: the “EC50 (luciferase reporter)” value was determined as 0.7 µM and the “ECmax (-fold induction over basal)” value was 16.2 -fold induction over basal.

With B27, the “EC50 (luciferase reporter)” value is 0.02 µM and the “ECmax (-fold induction over basal)” value was 10.1 -fold induction over basal.

B28: the “EC50 (luciferase reporter)” value came out at 0.55 µM and the “ECmax (-fold induction over basal)” value is 6.76 -fold induction over basal.

Take B29: the “EC50 (luciferase reporter)” value stood at 0.83 µM and the “ECmax (-fold induction over basal)” value was 28.1 -fold induction over basal.

In the case of B30, the “EC50 (luciferase reporter)” value came to 68.4 µM and the “ECmax (-fold induction over basal)” value is 15 -fold induction over basal.

B31: the “EC50 (luciferase reporter)” value worked out at 0.15 µM and the “ECmax (-fold induction over basal)” value was 20.5 -fold induction over basal.

Turning to B32, the “EC50 (luciferase reporter)” value amounted to 0.34 µM and the “ECmax (-fold induction over basal)” value was 8 -fold induction over basal.

B33: the “EC50 (luciferase reporter)” value is 0.14 µM and the “ECmax (-fold induction over basal)” value is 15 -fold induction over basal.

B34: the “EC50 (luciferase reporter)” value was 0.007 µM and the “ECmax (-fold induction over basal)” value is 16 -fold induction over basal.

In the case of B35, the “EC50 (luciferase reporter)” value is 0.007 µM and the “ECmax (-fold induction over basal)” value was 14.2 -fold induction over basal.

As to B36, the “EC50 (luciferase reporter)” value is 56.4 µM and the “ECmax (-fold induction over basal)” value is 15.5 -fold induction over basal.

On to B37, for which the “EC50 (luciferase reporter)” value is 0.19 µM and the “ECmax (-fold induction over basal)” value is 28.2 -fold induction over basal.

As to B38, the “EC50 (luciferase reporter)” value was 0.007 µM and the “ECmax (-fold induction over basal)” value is 11.6 -fold induction over basal.

Take B39: the “ECmax (-fold induction over basal)” value was 14.9 -fold induction over basal.
